{
  "source": "paper PMC7337067",
  "about": "“Cryo-electron microscopic and X-ray crystallographic analysis of the light-driven proton pump proteorhodopsin reveals a pentameric assembly” (Journal of Structural Biology: X, 2020)",
  "biological_target": "the molecule itself",
  "assay": "crystal structure; 3D crystals of purified GPR, 50 mM MES pH 6, 25 mM MnCl2, 30% PEG 400; anisotropic diffraction to 4.44 Å; molecular replacement with pentameric HOT75BPR (PDB 4KLY); no atomic model built",
  "data": [
    {"protein": "green-light absorbing proteorhodopsin (GPR), untagged (natural protein, γ-proteobacterium, all-trans retinal covalently linked via a Schiff base to a conserved lysine, N-terminal methionine added to the construct; theoretical MW of the monomer 25.5 kDa; Stop codon placed before the HRV 3C site and decahistidine-tag of pZUDF21, so no tag on the protein; Pentamer by crystallography and cryo-EM; also called untagged GPR; tag-free GPR; source: E. coli BL21(DE3) Rosetta2 (pZUDF21stop); purified from Cymal-5 solubilized membranes (Q Sepharose IEC, Superdex 200 SEC); …) MAGGGDLDASDYTGVSFWLVTAALLASTVFFFVERDRVSAKWKTSLTVSGLVTGIAFWHYMYMRGVWIETGDSPTVFRYIDWLLTVPLLICEFYLILAAATNVAGSLFKKLLVGSLVMLVFGYMGEAGIMAAWPAFIIGCLAWVYMIYELWAGEGKSACNTASPAVQSAYNTMMYIIIFGWAIYPVGYFTGYLMGDGGSALNLNLIYNLADFVNKILFGLIIWNVAVKESSNA", "values": [
      {"measurement": "stoichiometry N", "value": 5}
    ]}
  ]
}
